Laboratory results taken from PMC2724296 (Nucleic Acids Research, 2009).
Where a chain is given by its changes, count along the chain named. Each block holds one molecule with its values, some of them ahead of it.

Legend:
ST1710 [1] = biological target: T1, ST1710 (Sulfurisphaera tokodaii, UniProt Q96ZY1); experiment: differential scanning calorimetry; format: binding
T1 sequence (Q96ZY1 1-146): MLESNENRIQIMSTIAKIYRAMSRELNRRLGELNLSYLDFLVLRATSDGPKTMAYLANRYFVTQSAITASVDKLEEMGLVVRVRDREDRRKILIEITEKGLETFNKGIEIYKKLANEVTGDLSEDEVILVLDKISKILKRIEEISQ

ST1710 R90A = biological target: T2, ST1710 R90A (Sulfolobus tokodaii strain 7, UniProt Q96ZY1 1-146, R90A); experiment: EMSA
T2 sequence: T1 sequence (Q96ZY1 1-146) with R90A

ST1710 K91A = biological target: T3, ST1710 K91A (Sulfolobus tokodaii strain 7, UniProt Q96ZY1 1-146, K91A); experiment: EMSA
T3 sequence: T1 sequence (Q96ZY1 1-146) with K91A

ST1710 R89A = biological target: T4, ST1710 R89A (Sulfolobus tokodaii strain 7, UniProt Q96ZY1 1-146, R89A); experiment: EMSA
T4 sequence: T1 sequence (Q96ZY1 1-146) with R89A

ST1710 [2] = biological target: T5, ST1710 (Sulfolobus tokodaii strain 7, UniProt Q96ZY1 1-146); experiment: crystal structure
T5 sequence: T1 sequence (Q96ZY1 1-146)

Kd (ST1710 [1]): 20 ± 4.9 mM
Molecule: O=C(O)c1ccccc1O [sodium salicylate]

B1: 30-mer putative st1710 promoter duplex (dsDNA)
DNA 1: AATAATGTCATTGTTAACAATAGCAAAAAT
DNA 2: ATTTTTGCTATTGTTAACAATGACATTATT
binding result (ST1710 R90A): no binding | binding result (ST1710 K91A): no binding | binding result (ST1710 R89A): no binding | binding result (ST1710 [2]): binds
